Experimental data from patent US20240059799A1 (Pfizer, published 2024).

T1: recombinant mouse TL1A (mouse, UniProt Q5UBV8 75-252)
T1 construct: biotinylated for SPR capture
T1 chain: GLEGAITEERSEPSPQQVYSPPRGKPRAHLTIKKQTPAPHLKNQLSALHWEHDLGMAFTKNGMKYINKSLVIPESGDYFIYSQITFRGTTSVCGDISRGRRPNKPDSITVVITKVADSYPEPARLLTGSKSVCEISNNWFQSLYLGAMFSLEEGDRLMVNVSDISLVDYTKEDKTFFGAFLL

T2: recombinant rat TL1A (rat, UniProt Q8K3Y7 76-252)
T2 construct: biotinylated for SPR capture
T2 sequence: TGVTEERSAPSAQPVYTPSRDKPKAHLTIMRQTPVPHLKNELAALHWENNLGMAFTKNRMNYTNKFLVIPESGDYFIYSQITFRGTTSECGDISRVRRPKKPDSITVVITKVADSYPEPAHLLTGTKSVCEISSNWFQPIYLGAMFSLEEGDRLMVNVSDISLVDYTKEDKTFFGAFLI

T3: human IL-12 (human, UniProt P29460 23-328; P29459 23-219)
T3 sequence 1: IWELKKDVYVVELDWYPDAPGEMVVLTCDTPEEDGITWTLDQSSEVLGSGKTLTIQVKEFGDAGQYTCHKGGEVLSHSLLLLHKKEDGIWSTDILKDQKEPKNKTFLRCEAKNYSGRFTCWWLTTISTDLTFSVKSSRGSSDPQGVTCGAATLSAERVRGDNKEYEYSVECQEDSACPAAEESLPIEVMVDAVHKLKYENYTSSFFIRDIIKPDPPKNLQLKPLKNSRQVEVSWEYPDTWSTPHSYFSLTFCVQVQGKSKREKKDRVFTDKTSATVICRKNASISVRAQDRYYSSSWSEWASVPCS
T3 sequence 2: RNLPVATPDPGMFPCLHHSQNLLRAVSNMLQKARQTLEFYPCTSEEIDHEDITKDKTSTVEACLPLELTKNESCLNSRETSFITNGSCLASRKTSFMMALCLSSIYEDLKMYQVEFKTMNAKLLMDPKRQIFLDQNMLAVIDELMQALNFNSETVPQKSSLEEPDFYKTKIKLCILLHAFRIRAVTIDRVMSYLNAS

T4: rat IL-12 (rat, UniProt P43432 23-335; Q9R103 23-215, limits assumed)
T4 chain 1: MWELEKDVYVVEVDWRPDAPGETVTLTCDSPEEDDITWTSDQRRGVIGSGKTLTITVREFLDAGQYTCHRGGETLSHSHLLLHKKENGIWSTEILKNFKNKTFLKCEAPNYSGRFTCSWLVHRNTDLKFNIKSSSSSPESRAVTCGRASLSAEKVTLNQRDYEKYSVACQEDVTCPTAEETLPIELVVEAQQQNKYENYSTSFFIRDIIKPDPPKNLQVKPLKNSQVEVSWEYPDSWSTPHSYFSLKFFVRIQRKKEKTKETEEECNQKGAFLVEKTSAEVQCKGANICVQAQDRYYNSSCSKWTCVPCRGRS
T4 chain 2: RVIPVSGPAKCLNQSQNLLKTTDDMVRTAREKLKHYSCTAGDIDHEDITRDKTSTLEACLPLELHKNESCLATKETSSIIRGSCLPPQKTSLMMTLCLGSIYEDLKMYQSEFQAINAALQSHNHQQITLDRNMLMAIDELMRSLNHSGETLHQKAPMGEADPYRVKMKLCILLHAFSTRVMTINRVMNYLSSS

T5: recombinant human TL1A (human, UniProt O95150 71-251)
T5 construct: TL1A is described as a homotrimer; Biotinylated for SPR capture; also called TNFSF15
T5 chain: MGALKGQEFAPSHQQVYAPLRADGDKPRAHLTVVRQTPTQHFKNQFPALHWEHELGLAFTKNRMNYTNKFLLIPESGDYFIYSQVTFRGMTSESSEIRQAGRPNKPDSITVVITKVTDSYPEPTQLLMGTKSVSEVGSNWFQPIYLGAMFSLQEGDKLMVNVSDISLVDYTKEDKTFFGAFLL

T6: recombinant cynomolgus monkey TL1A (cynomolgus monkey, UniProt O95150 72-251 (human entry))
T6 construct: also called Cyno TL1A
T6 chain: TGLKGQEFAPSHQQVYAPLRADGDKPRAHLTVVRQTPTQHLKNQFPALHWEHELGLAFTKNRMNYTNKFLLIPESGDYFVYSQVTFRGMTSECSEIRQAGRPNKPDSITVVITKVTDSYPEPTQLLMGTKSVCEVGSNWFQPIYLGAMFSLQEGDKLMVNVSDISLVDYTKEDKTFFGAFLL

T7: recombinant mouse TL1A (mouse, UniProt Q5UBV8 75-252)
T7 chain: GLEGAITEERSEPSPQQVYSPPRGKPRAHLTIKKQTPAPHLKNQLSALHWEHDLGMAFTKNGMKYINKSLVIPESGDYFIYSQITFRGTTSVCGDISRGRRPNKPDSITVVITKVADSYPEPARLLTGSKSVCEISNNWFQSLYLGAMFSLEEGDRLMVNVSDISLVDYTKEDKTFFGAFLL

T8: recombinant rat TL1A (rat, UniProt Q8K3Y7 76-252)
T8 sequence: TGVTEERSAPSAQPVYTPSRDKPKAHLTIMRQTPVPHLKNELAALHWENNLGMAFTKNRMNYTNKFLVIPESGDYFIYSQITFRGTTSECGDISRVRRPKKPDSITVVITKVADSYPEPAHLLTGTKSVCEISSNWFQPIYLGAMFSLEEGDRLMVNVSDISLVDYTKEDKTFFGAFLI


How the values were obtained:
recombinant mouse TL1A [1] = target: T1, recombinant mouse TL1A; test: SPR, antibody injected over captured biotinylated TL1A, 37° C.
Procedure: (§1) For these analyses, kinetic assays were conducted at 37° C. using a collection rate of 10 Hz on a Biacore™ T200 instrument (GE Healthcare). […] The association phase was 90 seconds, and the dissociation phases were 1600 seconds over human, cynomolgus monkey and rabbit TL1A and 180 seconds for mouse and rat TL1A.
(§2) In order to determine binding to TL1A, kinetic assays were conducted at 37° C. using a collection rate of 10 Hz on a Biacore™ T200 instrument (GE Healthcare).

recombinant rat TL1A [2] = target: T2, recombinant rat TL1A; test: as above
Procedure: as §1, §2

human IL-12 = target: T3, human IL-12; test: cell-based or functional assay
rat IL-12 = target: T4, rat IL-12; test: SPR, Biacore 8K+, 37 C; antibody captured by anti-human Fc, cytokine injected
Procedure: (§3) In order to determine binding to TL1A, kinetic assays were conducted at 37° C. using a collection rate of 10 Hz on a Biacore™ T200 instrument (GE Healthcare). […] For the analysis of the p40 binding arm, kinetic assays were conducted at 37° C. using a collection rate of 10 Hz on a Biacore™ 8 K+ instrument (GE Healthcare).

recombinant human TL1A = target: T5, recombinant human TL1A; test: SPR, Biacore T200, 37 C; biotinylated TL1A captured on Biotin CAPture chip, antibody injected
Procedure: as §3

[3] = target: T6, recombinant cynomolgus monkey TL1A; test: as above
Procedure: as §3

recombinant mouse TL1A [4] = target: T7, recombinant mouse TL1A; test: as above
Procedure: as §3

recombinant rat TL1A [5] = target: T8, recombinant rat TL1A; test: as above
Procedure: as §3

| binding result (recombinant mouse TL1A [1]) | binding result (recombinant rat TL1A [2]) | KIT-225 STAT4 phosphorylation, Human IL-12 IC50 (human IL-12) [nM] | binding result (rat IL-12) | Kd (recombinant human TL1A) [nM] | koff (recombinant human TL1A) [s⁻¹] | kon (recombinant human TL1A) [M⁻¹ s⁻¹] | Kd [3] [nM] | koff [3] [s⁻¹] | kon [3] [M⁻¹ s⁻¹] | Kd (recombinant mouse TL1A [4]) [nM] | koff (recombinant mouse TL1A [4]) [s⁻¹] | kon (recombinant mouse TL1A [4]) [M⁻¹ s⁻¹] | koff (recombinant rat TL1A [5]) [s⁻¹] | kon (recombinant rat TL1A [5]) [M⁻¹ s⁻¹] | Binder |
| --- | --- | --- | --- | --- | --- | --- | --- | --- | --- | --- | --- | --- | --- | --- | --- |
| binds | binds |  |  |  |  |  |  |  |  |  |  |  |  |  | p40TL1A-0033 (bispecific antibody, human IgG1, kappa, KiH modified-Fd bispecific: TL1A VL-CL-Fc (hole), TL1A mFd, p40 HC (knob), p40 LC; LS) chain 1: not shown chain 2: QVQLVQSGAEVKKPGASVKVSCKASGYDYTYYGISWVRQAPGQGLEWMGWISTYNTGTHYAPSLQGRVTMTTDTSTSTAYMELRSLRSDDTAVYYCARESYYGSGAFRGGMDVWGQGTTVTVSSASTKGPSVFPLAPSSKSTSGGTAALGCLVKDYFPEPVTVSWNSGALTSGVHTFPAVLQSSGLYSLSSVVTVPSSSLGTQTYICNVNHKPSNTKVDKKVEPKSC heavy: EVQLVQSGAEVKKPGESLKISCKGSGYSFTTYWLGWVRQMPGKGLDWIGIMSPVDSDIRYSPSFQGQVTMSVDKSITTAYLQWNSLKASDTAMYYCARRRPGQGYFDFWGQGTLVTVSSASTKGPSVFPLAPSSKSTSGGTAALGCLVKDYFPEPVTVSWNSGALTSGVHTFPAVLQSSGLYSLSSVVTVPSSSLGTQTYICNVNHKPSNTKVDKKVEPKSCDKTHTCPPCPAPEAAGAPSVFLFPPKPKDTLMISRTPEVTCVVVDVSHEDPEVKFNWYVDGVEVHNAKTKPREEQYNSTYRVVSVLTVLHQDWLNGKEYKCKVSNKALPAPIEKTISKAKGQPREPQVCTLPPSREEMTKNQVSLWCLVKGFYPSDIAVEWESNGQPENNYKTTPPVLDSDGSFFLYSKLTVDKSRWQQGNVFSCSVLHEALHSHYTQKSLSLSPGK light: not shown |
|  |  | 1.11 | no binding (tested: 200 nM) | 0.34 | 5.05e-05 | 150000 | 1.09 | 0.000127 | 117000 | 288 | 0.00761 | 26700 | 0.0562 | 52400 | p40TL1A-0033 bispecific antibody (bispecific antibody, human IgG1, kappa, Single cell KiH, modified Fd format; IgG1 effector-function-minimized Fc with LS mutations) heavy: EVQLVQSGAEVKKPGESLKISCKGSGYSFTTYWLGWVRQMPGKGLDWIGIMSPVDSDIRYSPSFQGQVTMSVDKSITTAYLQWNSLKASDTAMYYCARRRPGQGYFDFWGQGTLVTVSSASTKGPSVFPLAPSSKSTSGGTAALGCLVKDYFPEPVTVSWNSGALTSGVHTFPAVLQSSGLYSLSSVVTVPSSSLGTQTYICNVNHKPSNTKVDKKVEPKSCDKTHTCPPCPAPEAAGAPSVFLFPPKPKDTLMISRTPEVTCVVVDVSHEDPEVKFNWYVDGVEVHNAKTKPREEQYNSTYRVVSVLTVLHQDWLNGKEYKCKVSNKALPAPIEKTISKAKGQPREPQVCTLPPSREEMTKNQVSLWCLVKGFYPSDIAVEWESNGQPENNYKTTPPVLDSDGSFFLYSKLTVDKSRWQQGNVFSCSVLHEALHSHYTQKSLSLSPGK light: not shown chain 1: not shown chain 2: QVQLVQSGAEVKKPGASVKVSCKASGYDYTYYGISWVRQAPGQGLEWMGWISTYNTGTHYAPSLQGRVTMTTDTSTSTAYMELRSLRSDDTAVYYCARESYYGSGAFRGGMDVWGQGTTVTVSSASTKGPSVFPLAPSSKSTSGGTAALGCLVKDYFPEPVTVSWNSGALTSGVHTFPAVLQSSGLYSLSSVVTVPSSSLGTQTYICNVNHKPSNTKVDKKVEPKSC |
